Ka data for two substances are collected here from paper PMC3315527.

The target of this experiment is chaperone receptors within native chloroplast membranes (dynamic TIRE). Put plainly: total internal reflection ellipsometry (TIRE); dynamic: pea chloroplast membranes on Cr/Au slides; time course of Δ at 700 nm over 15 min at chaperone concentrations from 1 to 10 µg/ml in 100 mM Tris-HCl pH 8.0; 1/τ against concentration fitted to a line, KA = ka/kd.

Sequence of Hsp90-2 (At5g56030), full length (P55737 whole entry): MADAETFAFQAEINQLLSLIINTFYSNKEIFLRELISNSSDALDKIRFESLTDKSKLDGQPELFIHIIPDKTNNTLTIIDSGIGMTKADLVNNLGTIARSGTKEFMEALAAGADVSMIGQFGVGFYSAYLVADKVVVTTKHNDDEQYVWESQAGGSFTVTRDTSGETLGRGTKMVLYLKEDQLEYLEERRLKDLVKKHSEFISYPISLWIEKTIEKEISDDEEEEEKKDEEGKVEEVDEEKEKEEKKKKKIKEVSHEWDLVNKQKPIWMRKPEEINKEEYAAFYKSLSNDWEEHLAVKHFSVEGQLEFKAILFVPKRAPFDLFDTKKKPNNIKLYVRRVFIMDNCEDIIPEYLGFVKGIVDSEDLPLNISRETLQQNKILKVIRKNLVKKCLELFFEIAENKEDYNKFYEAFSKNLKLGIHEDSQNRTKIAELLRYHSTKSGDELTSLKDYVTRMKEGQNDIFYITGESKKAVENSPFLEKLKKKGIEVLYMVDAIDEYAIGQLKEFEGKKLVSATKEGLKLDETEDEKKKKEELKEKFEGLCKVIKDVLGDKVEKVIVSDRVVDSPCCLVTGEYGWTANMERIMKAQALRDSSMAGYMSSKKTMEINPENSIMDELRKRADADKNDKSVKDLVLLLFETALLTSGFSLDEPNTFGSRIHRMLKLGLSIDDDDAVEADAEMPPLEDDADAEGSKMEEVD
Sequence of Hsp70-1 (At5g02500), full length (P22953 whole entry): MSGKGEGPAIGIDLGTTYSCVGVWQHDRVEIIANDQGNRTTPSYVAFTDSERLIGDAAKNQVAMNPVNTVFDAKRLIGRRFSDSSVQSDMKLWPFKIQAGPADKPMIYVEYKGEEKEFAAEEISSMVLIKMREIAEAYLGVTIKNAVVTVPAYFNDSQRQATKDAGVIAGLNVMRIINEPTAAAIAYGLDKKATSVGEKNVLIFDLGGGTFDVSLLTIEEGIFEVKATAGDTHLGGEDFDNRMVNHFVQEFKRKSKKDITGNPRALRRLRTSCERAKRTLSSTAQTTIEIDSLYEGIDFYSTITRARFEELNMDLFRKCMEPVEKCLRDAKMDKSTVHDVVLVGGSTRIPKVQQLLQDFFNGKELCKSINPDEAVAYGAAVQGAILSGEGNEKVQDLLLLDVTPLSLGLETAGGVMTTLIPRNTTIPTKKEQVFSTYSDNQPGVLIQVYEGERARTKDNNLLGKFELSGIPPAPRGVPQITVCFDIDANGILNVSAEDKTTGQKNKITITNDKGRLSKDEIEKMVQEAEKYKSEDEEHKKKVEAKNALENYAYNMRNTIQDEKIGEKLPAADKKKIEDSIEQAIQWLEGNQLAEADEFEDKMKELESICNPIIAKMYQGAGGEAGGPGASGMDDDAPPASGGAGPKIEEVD

Substance “Hsp70-1 (At5g02500), full length (from UniProt P22953 1-651) (natural protein)” came in with a Ka of 9.15e+06 M⁻¹.
The substance “Hsp90-2 (At5g56030), full length (from UniProt P55737 1-699) (natural protein)” returned a Ka of 8.74e+06 M⁻¹.
